# Values of other authors in PMC3044768.
# Like-named read-outs stand apart in the source and are kept apart here.
# How the values were obtained:
# [1] = target: SARS 3CLpro 3CLpro (Severe acute respiratory syndrome coronavirus) (UniProt P0C6X7); conditions: cited from earlier work
# [2] = target: SARS 3CLpro 3CLpro (Severe acute respiratory syndrome coronavirus) (UniProt P0C6X7); conditions: cited from earlier work; remark: listed apart in the source
substance,measurement,setting,value
SARS 3CLpro 3CLpro (from UniProt P0C6X7),Kd,[1],12.7 µM
same,Kd,[2],5.2 µM
